The target of data set [1] is T1, chymase (recombinant, manufactured by SIGMA) (Homo sapiens, UniProt P23946).
T1 construct: purchased SIGMA; host or cells: yeast
T1 sequence (P23946 22-247): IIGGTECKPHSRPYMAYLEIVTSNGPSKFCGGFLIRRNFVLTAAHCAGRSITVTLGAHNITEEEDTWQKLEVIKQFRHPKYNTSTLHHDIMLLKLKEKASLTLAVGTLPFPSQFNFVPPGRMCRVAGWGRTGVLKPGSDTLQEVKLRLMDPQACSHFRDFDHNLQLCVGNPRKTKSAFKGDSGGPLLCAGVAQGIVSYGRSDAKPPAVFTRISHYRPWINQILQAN
In words: Chymase inhibitory activity using synthetic substrate Suc-Ala-Ala-Pro-Phe-MCA. It counts as biochemical. The gist of the method: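 Human recombinant chymase (16.7 nM or 1.67 nM final) preincubated 5 min at 37° C., then added to nucleic acid (0.0027–2 μM serial dilutions) and 100 μM substrate in solution C. AMC fluorescence (ex 380/em 460 nm) followed 5 or 30 min at 37° C.; slope gives initial velocity, inhibition versus no-inhibitor control yields IC50.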

The target of data set [2] is T2, native chymase (purified from human skin mast cell) (Homo sapiens, UniProt P23946).
T2 construct: the native is chymase purified from human skin mast cell; purchased Calbiochem; host or cells: human skin mast cell
T2 sequence (P23946 22-247): T1 sequence (P23946 22-247)
In words: Chymase inhibitory activity using angiotensin I as substrate, native chymase. The data set is classed as biochemical. The settings on record: final 50 μM, chymase 0.2-0.5 nM, 37° C. 90 min, one measurement. The method, then:
(§1) A second method of evaluation employs a native substrate. A useful native substrate for chymase is angiotensin I. Here, His-Leu, a peptide fragment released upon degradation of angiotensin I, is fluorescently derivatized, and the fluorescence intensity therefrom is quantified.
(§2) In the assay, an enzyme reaction is carried out in 50 μL of solution C. First, 0.3-0.75 ng of chymase (recombinant, manufactured by SIGMA; or native, manufactured by Calbiochem) is diluted in solution C to obtain 5 μL chymase solution. Each nucleic acid is prepared in solution C to obtain 25 μL solutions. 5 μL of each chymase dilution and 25 μL of each nucleic acid solution are mixed, and then the mixture is incubated at 37° C. for 5 minutes. […] The angiotensin I solution is added to the mixture of chymase and nucleic acid, and the enzyme reaction is initiated. After the reaction was allowed to proceed at 37° C. for 90 minutes, 25 μL of ice-cooled 30% trichloroacetic acid solution is added to terminate the reaction. The entire mixture is centrifuged at 4° C., 14000 rpm for 10 minutes, and 30 μL of the resulting supernatant is used for the subsequent reaction for fluorescent derivatization.
(§3) After 30 μL of the supernatant is added to a 96-well plate (Black, manufactured by Costar), 15 μL of 2% o-phthalaldehyde (manufactured by SIGMA) solution in methanol and 170 μL of 0.3M NaOH solution are mixed in each well, and the plate is allowed to stand at room temperature for 10 minutes. Subsequently, 25 μL of 3M HCl solution is added to terminate the reaction. The plate is set to the microplate reader SpectraMax190 (manufactured by Molecular Devices Corporation), and the fluorescence intensity is determined at an excitation wavelength of 355 nm and a fluorescence wavelength of 460 nm.
(§4) For control, samples are treated and analyzed in the same manner in two cases: use of SEQ ID NO: 58 (negative control) and use of chymostatin, a known chymotrypsin-like serine protease inhibitor (positive control). In both cases, fluorescence intensity obtained at 0 minute reaction time serves as a blank determination. Taking the fluorescence intensity detected with the addition of an equal volume of solution C, in place of each nucleic acid, in the chymase enzyme reaction as 100%, the inhibitory rate for each test substance is calculated, and the inhibitor concentration required to cause a 50% inhibition of the enzyme activity (IC50) is determined.
(§5) For further assessment of the inhibitory activity of the nucleic acid of the present invention, the enzyme activity of chymase was measured using angiotensin I, which is a native substrate for chymase, according to the following method. Angiotensin I is converted by chymase to angiotensin II, during which a peptide fragment His-Leu is released. Since the peptide His-Leu is fluorescently derivatized by o-phthalaldehyde, its fluorescence intensity can be quantitatively measured.
(§6) The total volume of solution for an enzyme reaction in the assay was set to 50 μL, and the reaction was performed in solution C buffer. First, 0.3-0.75 ng of chymase (recombinant, (manufactured by SIGMA) or native (manufactured by Calbiochem)) was diluted with solution C to give 5 μL thereof. Here, the recombinant is chymase expressed by yeast, and the native is chymase purified from human skin mast cell. The nucleic acid was serially diluted with solution C at a concentration of 0.0027-2 μM to give 25 μL thereof. The chymase solution (5 μL) and the nucleic acid solution (25 μL) were mixed, and the mixture was incubated at 37° C. for 5 min. On the other hand, […] angiotensin I (manufactured by PEPTIDE INSTITUTE, INC.) was prepared in solution C to give […] thereof, which was incubated at 37° C. for 5 min. The angiotensin I solution was added to a mixture of chymase and nucleic acid to start an enzyme reaction. The final chymase concentration of the reaction solution was 0.2-0.5 nM, and the final substrate concentration was 50 μM. […]

Data set [3] has as its target T3, recombinant chymase (expressed by yeast) (Homo sapiens, UniProt P23946).
T3 construct: purchased SIGMA; host or cells: yeast
T3 sequence (P23946 22-247): T1 sequence (P23946 22-247)
Put plainly: Chymase inhibitory activity using angiotensin I as substrate, recombinant chymase. The data set is classed as biochemical. To be noted: final 50 μM, chymase 0.2-0.5 nM, 37° C. 90 min, one measurement. The method, then:
as §1, §2, §3, §4, §5, §6

Data set [4] has as its target T4, chymase (recombinant) (UniProt P23946 P23946:22-247).
T4 sequence: T1 sequence (P23946 22-247)
Put plainly: inhibition; SPR ++. The settings on record: tags: SIGMA, expressed in yeast. The method, then:
Here, Suc is a protecting succinyl group, and MCA is a 4-methylcoumaryl-7-amide group; upon cleavage of the C-terminal side of phenylalanine, AMC (7-amino-4-methyl-coumarine) is released. By detecting the fluorescence of this AMC, the enzyme activity of chymase can be determined. The assay was performed using a 96-well plate (F16 Black Maxisorp Fluoronunc, manufactured by Nunc), with a reaction mixture volume of 100 μL, in solution C as a buffer solution. First, each nucleic acid was serially diluted to 0.0027-2 μM concentrations in solution C to obtain 50 μL solutions. After 10 μL of the 1 mM substrate prepared in solution C was added thereto, the plate was set to the microplate reader SpectraMax190 (manufactured by Molecular Devices Corporation), and incubated at 37° C. for 5 minutes. Separately, 0.05 μg (or 0.005 μg) of chymase (recombinant, manufactured by SIGMA) was diluted in solution C to obtain a 40 μL chymase solution, and incubated at 37° C. for 5 minutes. The chymase solution was added to the mixture of the nucleic acid and substrate to initiate an enzyme reaction. The final chymase concentration in the reaction mixture was 16.7 nM (or 1.67 nM), the final substrate concentration being 100 μM. The plate containing the reaction mixture was set to the microplate reader SpectraMax190 (manufactured by Molecular Devices Corporation), and examined for time-dependent changes in the fluorescence intensity at 37° C. for 5 minutes (or 30 minutes) (excitation wavelength 380 nm, detection wavelength 460 nm). A linear approximation of the increase in the fluorescence of the AMC released from the substrate by chymase activity was generated, and its slope was taken as the initial velocity […]. For control, samples were treated and analyzed in the same manner in two cases: use of a 30N or 40N (a nucleotide of 30 or 40 consecutive bases represented by N; N is A, G, C or T) nucleic acid pool (negative control), and use of chymostatin, a known chymotrypsin-like serine protease inhibitor (positive control). Taking the initial reaction velocity without the nucleic acid and inhibitor (V_0) as a 100% enzyme activity, the inhibitory rate of each test substance was calculated using the following equation: […]
The inhibitory activity on chymase was measured in the same manner as in Example 3.

For data set [5], the target named is T5, chymase (Homo sapiens, UniProt P23946).
T5 sequence (P23946 22-247): T1 sequence (P23946 22-247)
In words: Surface plasmon resonance (Biacore T100), aptamer immobilized on SA chip, chymase injected as analyte. It counts as binding. Set-up: key: ++: a sequence that binds to chymase significantly more strongly than the negative control 30N. The settings on record: Table 2; same manner as Example 1, running buffer solution C; compared with 30N. As for the experimental part: Binding strength is measured using Biacore T100 (manufactured by GE Healthcare). In a method of measurement, the aptamer is first immobilized onto a sensor chip, the amount immobilized being about 1000 RU. 20 μL of a chymase solution for analyte, prepared at 0.2 μM, is injected, and the binding of chymase to the aptamer is detected. An RNA comprising a random nucleotide sequence of 30 or 40 nucleotides is used as a negative control.
The binding activities against chymase of the nucleic acids shown by SEQ ID NO: 4-20 and 22-34 were determined by the surface plasmon resonance method using Biacore T100 (manufactured by GE Healthcare). The sensor chip used was the SA chip, which had streptavidin immobilized thereon. Bound thereto was about 1500 RU of a 16-nucleotide Poly dT with biotin bound to the 5′ end thereof. […] 20 μL of chymase for analyte, prepared at 0.2 μM, was injected. Solution A was used as a running buffer.
The binding activities against chymase of the nucleic acids shown by SEQ ID NO: 38-48 were evaluated by the surface plasmon resonance method. In the evaluations for SEQ ID NO: 38-48, measurements were taken in the same manner as Example 1. Solution C was used as a running buffer.
(SPR reads the build-up and loss of mass on a sensor chip optically.)

The mark [6] stands for this setting: Table 3, substrate 100 μM, solution C, 37° C., mean value for 2 to 3 measurements.

The values that follow come from patent US9012420B2, “Aptamer for chymase, and use thereof” (Ribomic Inc., priority 2009, dated 2015).

On to “69 (AAAGGGUUAGAUAGAGUUAAAAACCC; listed as RNA, chemistry not given here) [compound 69]”, for which the IC50 – broadly, the concentration needed to halve the response being measured – is 91 ± 19 nM in data set [1] (Table 7, same manner as Example 3, mean value of two measurements); greater than 1000 nM in data set [2]; 628 nM in data set [3].

B1: 56(12) (ssRNA)
RNA: GGGUUAGAUAGAGUUAAAAACCC
modifications: 2'-F pyrimidines; 2'-OMe G13
In the case of B1, the IC50 in data set [4] is 35 nM.

B2: 56(4) (ssRNA)
RNA: GGGUUAGAUAGAGUUAAAAACCC
modifications: 2'-F pyrimidines; 2'-OMe A10
On to B2, for which, in data set [4], the IC50 amounted to 27 nM.

B3: 43 (nucleic acid)
chain: GGGAGCAGGAGAGAGGUCAGAUGAUGCCAAGAUAGAUUUAAAUGGCGUUUGGGCCUAUGCGUGCUAGUGUGA
modifications: aptamer; 2'-fluoro at CU, RNA at AG, backbone not given here
As for B3, the IC50 in data set [1] (setting [6]) came out at 81 ± 50 nM. Besides, the “Binding activity as determined using Biacore” value (“Binding activity as determined” below) in data set [5] is “++”.

B4: 56(7) (ssRNA)
RNA: GGGUUAGAUAGAGUUAAAAACCC
modifications: 2'-F pyrimidines; 2'-OMe A8
For the molecule B4, in data set [4], the IC50 was 38 nM.

B5: 56(16) (ssRNA)
RNA: GGGUUAGAUAGAGUUAAAAACCC
modifications: 2'-F pyrimidines except U15 2'-OH
With B5, the IC50 in data set [4] was 58 nM.

B6: 56(11) (ssRNA)
RNA: GGGUUAGAUAGAGUUAAAAACCC
modifications: 2'-F pyrimidines; 2'-OMe A18
Regarding B6, the IC50 in data set [4] worked out at 28 nM.

B7: 56(5) (ssRNA)
RNA: GGGUUAGAUAGAGUUAAAAACCC
modifications: 2'-F pyrimidines; 2'-OMe A16,A17
Regarding B7, the IC50 in data set [4] was determined as 29 nM.

B8: 39 (nucleic acid)
chain: GGGAGCAGGAGAGAGGUCAGAUGGUUACGGAUAGAGUUAAGGUAACGGUACGGCCUAUGCGUGCUAGUGUGA
modifications: aptamer; 2'-fluoro at CU, RNA at AG, backbone not given here
With B8, the “Binding activity as determined” value in data set [5] was “++”.

B9: 56(6) (ssRNA)
RNA: GGGUUAGAUAGAGUUAAAAACCC
modifications: 2'-F pyrimidines; 2'-OMe G7
For B9, in data set [4], the IC50 came out at 31 nM.

B10: 44 (nucleic acid)
chain: GGGAGCAGGAGAGAGGUCAGAUGUUAGACCAAAGCAUAGGAGAUAGAGUUAAACCUAUGCGUGCUAGUGUGA
modifications: aptamer; 2'-fluoro at CU, RNA at AG, backbone not given here
B10: in data set [1] (setting [6]), the IC50 worked out at 49 ± 13 nM. Also, the “Binding activity as determined” value in data set [5] is recorded as “++”.

B11: 45 (nucleic acid)
chain: GGGAGCAGGAGAGAGGUCAGAUGGACCACCGAUGGGCAAGAUAGAGUUAAAUGCCUAUGCGUGCUAGUGUGA
modifications: aptamer; 2'-fluoro at CU, RNA at AG, backbone not given here
For B11, the IC50 in data set [1] (setting [6]) came out at 74 ± 11 nM. Moreover, the “Binding activity as determined” value in data set [5] is “++”.

B12: 42 (nucleic acid)
chain: GGGAGCAGGAGAGAGGUCAGAUGCGUGAUCGUGCAAGGCGGAUAGAGUUAAGGCCUAUGCGUGCUAGUGUGA
modifications: aptamer; 2'-fluoro at CU, RNA at AG, backbone not given here
Take B12: the IC50 in data set [1] (setting [6]) came to 124 ± 26 nM. The “Binding activity as determined” value in data set [5] is “++”.

B13: 56(9) (ssRNA)
RNA: GGGUUAGAUAGAGUUAAAAACCC
modifications: 2'-F pyrimidines; 2'-OMe A12
As to B13, the IC50 in data set [4] amounted to 111 nM.

B14: 56(15) (ssRNA)
RNA: GGGUUAGAUAGAGUUAAAAACCC
modifications: 2'-F pyrimidines except U9 2'-OH
On to B14, for which the IC50 in data set [4] amounted to 61 nM.

B15: 56(3) (ssRNA)
RNA: GGGUUAGAUAGAGUUAAAAACCC
modifications: 2'-F pyrimidines; 2'-OMe A19,A20
For B15, in data set [4], the IC50 amounted to 25 nM.
